Assay results taken from patent US20010029293A1 (ICOS, published 2001).
Residue numbers refer to the chain shown, from its start. In names and notes the source's numbering stands.

Legend:
[1] = biological target: T1, LFA-1 (CD11a/CD18) on cells (human, UniProt P20701 26-1170; P05107 23-769); test: cell adhesion to coated shICAM-R, peptide 1-2 mg/ml
T1 construct: whole, on cells; on SKW3, JY, HL-60 cells, neutrophils, or CHO/COS transfectants; also called CD18/CD11a

[2] = biological target: T1, LFA-1 (CD11a/CD18) on cells; test: JY cell adhesion to plate-bound chimera
[3] = biological target: T2, human ICAM-R (human, UniProt P32942 30-547); test: FACS, 5 µg/ml
T2 construct: On transfected L, CV-1 or COS cells, or native on human leukocytes and cell lines; also called ICAM-3; CDw50
T2 chain: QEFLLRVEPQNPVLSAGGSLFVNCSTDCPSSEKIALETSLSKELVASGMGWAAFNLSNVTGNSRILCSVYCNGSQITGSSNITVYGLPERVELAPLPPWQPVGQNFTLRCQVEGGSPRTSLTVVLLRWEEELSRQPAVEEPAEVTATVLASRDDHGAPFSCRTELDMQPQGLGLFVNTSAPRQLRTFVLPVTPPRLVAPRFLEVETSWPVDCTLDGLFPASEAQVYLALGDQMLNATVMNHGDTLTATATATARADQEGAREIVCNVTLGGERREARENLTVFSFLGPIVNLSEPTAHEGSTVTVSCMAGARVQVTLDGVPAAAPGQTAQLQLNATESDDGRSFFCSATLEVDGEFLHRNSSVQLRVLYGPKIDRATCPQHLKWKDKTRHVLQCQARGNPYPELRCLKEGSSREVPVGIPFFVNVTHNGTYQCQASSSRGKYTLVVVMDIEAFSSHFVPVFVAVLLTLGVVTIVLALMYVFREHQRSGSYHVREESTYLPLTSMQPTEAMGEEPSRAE

[4] = biological target: T3, chimeric Protein 3 (ICAM-R domains 1-3 / ICAM-1) (human, UniProt P05362 317-532); test: FACS, 5 µg/ml
T3 construct: range 317-532; on COS cells; also called Protein number 3; RD1-3.1D4-5

[5] = biological target: T4, human ICAM-1 (human, UniProt P05362 28-532); test: FACS, 5 µg/ml
T4 construct: whole, on cells; on transfected L or COS cells

[6] = biological target: T5, soluble human ICAM-R (human, UniProt P32942 30-485); test: ELISA on coated shICAM-R; Low = 50% maximal binding at >1 µg/ml, High = at <1 µg/ml
T5 construct: baculovirus/Sf-9 product; also called shICAM-R; ICAM-Rt1
T5 chain: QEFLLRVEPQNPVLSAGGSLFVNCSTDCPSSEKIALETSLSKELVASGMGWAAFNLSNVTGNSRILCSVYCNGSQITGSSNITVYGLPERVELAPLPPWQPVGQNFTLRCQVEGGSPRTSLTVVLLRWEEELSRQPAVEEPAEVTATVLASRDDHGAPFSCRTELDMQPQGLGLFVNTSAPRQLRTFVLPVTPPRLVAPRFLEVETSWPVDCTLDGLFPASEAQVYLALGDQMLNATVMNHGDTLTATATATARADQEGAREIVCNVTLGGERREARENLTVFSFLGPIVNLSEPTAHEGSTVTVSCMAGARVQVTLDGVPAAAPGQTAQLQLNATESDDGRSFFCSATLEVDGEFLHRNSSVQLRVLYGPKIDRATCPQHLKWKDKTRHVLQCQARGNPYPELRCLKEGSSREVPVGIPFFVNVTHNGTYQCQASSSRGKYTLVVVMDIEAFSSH

[7] = biological target: T2, human ICAM-R; test: cell-based or functional assay
[8] = biological target: T5, soluble human ICAM-R; test: ELISA on coated shICAM-R
[9] = biological target: T6, VLA-4 (α4/β1) on cells (UniProt P13612 34-1032; P05556 21-798, limits assumed); test: not described
T6 construct: whole, on cells; on Jurkat cells, T cells or COS transfectants

[10] = biological target: T1, LFA-1 (CD11a/CD18) on cells; test: not described
[11] = biological target: Mac-1 (CD11b/CD18) on cells (UniProt P11215 17-1152; P05107 23-769); test: neutrophil adhesion
[12] = biological target: T1, LFA-1 (CD11a/CD18) on cells; test: neutrophil adhesion
[13] = biological target: T5, soluble human ICAM-R; test: blocking of biotinylated murine ICR-8.1 (competitor) binding to ICAM-R

T1 sequence (P20701 26-1170, chain 1 of 2): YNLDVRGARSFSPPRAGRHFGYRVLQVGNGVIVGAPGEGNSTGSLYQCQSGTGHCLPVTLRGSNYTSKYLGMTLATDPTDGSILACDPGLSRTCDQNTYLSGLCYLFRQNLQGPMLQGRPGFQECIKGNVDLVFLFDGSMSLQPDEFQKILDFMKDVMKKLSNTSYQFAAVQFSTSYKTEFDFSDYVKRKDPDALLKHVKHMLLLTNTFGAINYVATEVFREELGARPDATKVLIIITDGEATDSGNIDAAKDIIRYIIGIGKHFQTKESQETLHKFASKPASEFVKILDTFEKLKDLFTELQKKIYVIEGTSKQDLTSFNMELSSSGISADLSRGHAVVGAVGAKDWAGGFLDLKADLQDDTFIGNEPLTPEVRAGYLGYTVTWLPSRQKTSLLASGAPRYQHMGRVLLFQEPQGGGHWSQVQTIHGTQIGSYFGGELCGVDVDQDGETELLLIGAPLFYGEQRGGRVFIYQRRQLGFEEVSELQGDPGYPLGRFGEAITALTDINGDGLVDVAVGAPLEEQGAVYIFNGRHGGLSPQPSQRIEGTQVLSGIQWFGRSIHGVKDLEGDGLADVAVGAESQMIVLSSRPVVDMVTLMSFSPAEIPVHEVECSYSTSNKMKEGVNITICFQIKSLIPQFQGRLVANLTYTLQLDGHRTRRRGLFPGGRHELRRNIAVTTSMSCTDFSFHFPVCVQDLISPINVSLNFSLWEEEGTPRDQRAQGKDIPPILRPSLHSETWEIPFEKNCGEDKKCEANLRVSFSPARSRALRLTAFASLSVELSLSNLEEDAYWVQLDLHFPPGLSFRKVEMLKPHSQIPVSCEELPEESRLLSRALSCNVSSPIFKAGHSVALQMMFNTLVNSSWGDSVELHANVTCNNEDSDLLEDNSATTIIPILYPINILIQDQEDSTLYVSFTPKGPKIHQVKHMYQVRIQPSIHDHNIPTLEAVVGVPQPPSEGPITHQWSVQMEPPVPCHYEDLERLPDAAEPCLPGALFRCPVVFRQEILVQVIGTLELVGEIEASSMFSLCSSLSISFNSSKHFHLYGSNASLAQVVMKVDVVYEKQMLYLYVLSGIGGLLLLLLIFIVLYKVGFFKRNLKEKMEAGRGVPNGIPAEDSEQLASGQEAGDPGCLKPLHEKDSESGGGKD
T1 sequence (P05107 23-769, chain 2 of 2): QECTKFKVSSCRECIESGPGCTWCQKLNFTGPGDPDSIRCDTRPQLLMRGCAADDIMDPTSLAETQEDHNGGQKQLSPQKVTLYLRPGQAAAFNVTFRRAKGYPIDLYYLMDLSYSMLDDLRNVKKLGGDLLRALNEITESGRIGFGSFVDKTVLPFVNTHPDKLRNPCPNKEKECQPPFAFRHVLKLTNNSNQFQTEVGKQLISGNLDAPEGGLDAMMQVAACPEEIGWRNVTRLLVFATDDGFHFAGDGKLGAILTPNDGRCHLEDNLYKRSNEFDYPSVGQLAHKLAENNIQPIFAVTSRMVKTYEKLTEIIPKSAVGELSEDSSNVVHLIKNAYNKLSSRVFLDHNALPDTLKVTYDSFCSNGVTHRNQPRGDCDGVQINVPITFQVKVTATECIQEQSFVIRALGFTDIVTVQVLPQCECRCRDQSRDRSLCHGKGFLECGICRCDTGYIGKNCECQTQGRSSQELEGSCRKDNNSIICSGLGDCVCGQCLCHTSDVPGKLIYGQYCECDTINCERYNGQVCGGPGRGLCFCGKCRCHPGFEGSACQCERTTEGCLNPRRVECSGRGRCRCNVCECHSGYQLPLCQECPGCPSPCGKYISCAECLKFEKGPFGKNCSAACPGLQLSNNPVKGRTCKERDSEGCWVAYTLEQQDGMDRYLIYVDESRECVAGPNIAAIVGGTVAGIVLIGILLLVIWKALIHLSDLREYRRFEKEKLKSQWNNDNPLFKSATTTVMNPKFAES
T4 sequence (P05362 28-532): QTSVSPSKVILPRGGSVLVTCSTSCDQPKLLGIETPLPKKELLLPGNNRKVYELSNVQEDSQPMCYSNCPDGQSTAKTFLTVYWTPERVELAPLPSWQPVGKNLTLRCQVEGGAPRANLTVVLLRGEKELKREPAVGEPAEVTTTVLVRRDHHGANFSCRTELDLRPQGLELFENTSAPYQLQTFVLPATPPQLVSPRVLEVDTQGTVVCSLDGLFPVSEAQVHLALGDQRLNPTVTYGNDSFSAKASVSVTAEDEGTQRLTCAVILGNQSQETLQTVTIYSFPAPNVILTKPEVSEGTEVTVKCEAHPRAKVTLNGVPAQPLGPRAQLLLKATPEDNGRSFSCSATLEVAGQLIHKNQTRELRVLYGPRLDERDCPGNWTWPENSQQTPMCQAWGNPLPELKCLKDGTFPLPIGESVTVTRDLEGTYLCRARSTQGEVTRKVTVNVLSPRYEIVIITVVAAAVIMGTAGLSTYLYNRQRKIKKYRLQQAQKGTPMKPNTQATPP

EKIALET [ICAM-R peptide 32-38] was tested, and the “% Inhibition CD18-Dependent Binding (SKW3)” value [1] was 0%.

In the case of GDQML [ICAM-R peptide 230-234 (GDQML)], the “% Inhibition CD18-Dependent Binding (SKW3)” value [1] is reported as 0%.

B1: domain deletion ICAM-R/IgG chimera with ICAM-R domains 3, 4 and 5 (Fc fusion)
chain: VLPVTPPRLVAPRFLEVETSWPVDCTLDGLFPASEAQVYLALGDQMLNATVMNHGDTLTATATATARADQEGAREIVCNVTLGGERREARENLTVFSFLGPIVNLSEPTAHEGSTVTVSCMAGARVQVTLDGVPAAAPGQTAQLQLNATESDDGRSFFCSATLEVDGEFLHRNSSVQLRVLYGPKIDRATCPQHLKWKDKTRHVLQCQARGNPYPELRCLKEGSSREVPVGIPFFVNVTHNGTYQCQASSSRGKYTLVVVMDIEAFSSH
notes: not shown: human IgG1 hinge, CH2, CH3
B1: no binding [2].

B2: ICR-1.1 (antibody, mouse IgG2a, V domains shown)
VH: QVQLQQSGAELADPGASVKMSCKASGYTFTVYWMHWVKQRPGQGLEWIGYINPNTDYTEYNQRFQDKATLTADKSSSTAYMQLSSLTSEDSAVYYCARWGGNSYGLDYWGQGTSVTVSS
VL: QIVLTQSPALMSASPGEKVTMTCSASSSVSYIYWYQQKPRSSPKPWIYLTSNLASGVPARFSGSGSGASYSLTISIMEAEDAATYYCQQWKSIPLTFGAGTKLELK
notes: murine IgG2a, kappa; also called 26E3D; 26E3D-1
For B2, the “percent positive COS cell transfectants” value [3] was 54.3%, the “percent positive COS cell transfectants” value [4] was 52.7% and the “percent positive COS cell transfectants” value [5] was 2.43%. The “monoclonal antibody concentration at 50% maximal binding (ELISA EC50)” value [6] was over 1 µg/mL and the “IC50 (µg/ml), inhibition of SEA-induced PBL proliferation by plate-bound antibody” value [7] was 63 µg/mL.

B3: ICR-1.1 antibody with HuVK (hybrid) (antibody, human IgG4, V domains shown)
VH: B2 VH with D13K
VL: DIQMTQSPSSLSASVGDRVTITCSASSSVSYIYWYQQKPGKAPKLLIYLTSNLASGVPSRFSGSGSGTDFTLTISSLQPEDFATYYCQQWKSIPLTFGQGTKLEIK
notes: human IgG4 and human kappa constant regions; also called HuVK version
With B3 the “fold deficit in binding against the murine progenitor chain” value [8] was 2 fold.

GERREA [ICAM-R peptide 271-276] was tested, and the “% Inhibition CD18-Dependent Binding (SKW3)” value [1] was 0%.

B4: ICAM-R/IgG variant D231H-Ig (Fc fusion)
chain: T5 chain with D231H
notes: as for B1
B4: binds [9]; binds [10].

B5: ICAM-R/IgG chimera E37/A (Fc fusion)
chain: T5 chain with E37A
notes: also called ICAM-R E37/A; not shown: human IgG1 hinge, CH2, CH3
B5: no binding [2]; binds [11].

B6: ICAM-R/His fusion protein (receptor, not shown: small tags and cut ends)
chain: T5 chain
notes: CHO product
B6: binds [11]; binds [12].

B7: ICAM-R/IgG variant E37T-Ig (Fc fusion)
chain: T5 chain with E37A, T38S
notes: as for B1
B7: no binding [10].

B8: ICR-8.1 (antibody, mouse IgG1, V domains shown)
VH: EIQLQQTGPELVKPGASVKISCKASGYSFTDCIILWVKQSHGKGLEWIGKINPYFGTTTYNLKFKGKATLTVDKSSSTAHMQLNSLTSEDSAVYYCARKEAYPDAMDYWGQGTSVTVSS
VL: DAVMTQTPLSLPVSLGDQASISCRSSQSLVHSNGDTYLHWYLQKPGQSPQLLIYKVSNRFSGVPDRFSGSGSGTDFTLKLSRVEAEDLGVYFCSQSTHVPYTFGGGTKLEIK
notes: murine IgG1, kappa; also called 46D7E; ATCC HB 11232
For B8, the “percent positive COS cell transfectants” value [3] was 48.9%, the “percent positive COS cell transfectants” value [4] was 44.9% and the “percent positive COS cell transfectants” value [5] was 1.08%. For the same binder, the “IC50 (µg/ml), inhibition of SEA-induced PBL proliferation by plate-bound antibody” value [7] was 1 µg/mL.

With DGQST [ICAM-1 peptide 70-74 (DGQST)] the “% Inhibition CD18-Dependent Binding (SKW3)” value [1] was 0%.

B9: ICR-8.1 miHuVHI/HuVK (antibody, human IgG4, V domains shown)
VH: QIQLVQSGAEVKKPGASVKVSCKASGYTFTDCIILWVRQAPGQGLEWMGKINPYFGTTTYAQKFQGRVTITADTSTSTAYMELSSLRSEDTAVYYCARKEAYPDAMDYWGQGTLVTVSS
VL: DIVMTQSPLSLPVTPGEPASISCRSSQSLVHSNGDTYLHWYLQKPGQSPQLLIYKVSNRFSGVPDRFSGSGSGTDFTLKISRVEAEDVGVYYCSQSTHVPYTFGQGTKVEIK
notes: human IgG4 and human kappa constant regions
B9 was tested, and the “fold improvement in binding over the other recombinant ICR-8.1 antibodies” value [8] was about 2 fold and the “fold less well in competition than murine ICR-8.1” value [13] was about 2 fold.

B10: ICR-8.1 miHuVHI/MuVK (antibody, human IgG4, V domains shown)
VH: B9 VH
VL: B8 VL
notes: as for B9
B10 was tested, and the “fold improvement in binding over the other recombinant ICR-8.1 antibodies” value [8] was about 2 fold and the “fold less well in competition than murine ICR-8.1” value [13] was about 2 fold.
